Here are results for 33 molecules from patent US20250352661A1 (MYTHIC THERAPEUTICS, published 2025).

Assay [1] deals with T1, Human LRRC15 Protein, His Tag, Acro Biosystems (human, UniProt Q8TF66 22-538, limits assumed).
T1 construct: not shown: His tag
T1 sequence (looked up): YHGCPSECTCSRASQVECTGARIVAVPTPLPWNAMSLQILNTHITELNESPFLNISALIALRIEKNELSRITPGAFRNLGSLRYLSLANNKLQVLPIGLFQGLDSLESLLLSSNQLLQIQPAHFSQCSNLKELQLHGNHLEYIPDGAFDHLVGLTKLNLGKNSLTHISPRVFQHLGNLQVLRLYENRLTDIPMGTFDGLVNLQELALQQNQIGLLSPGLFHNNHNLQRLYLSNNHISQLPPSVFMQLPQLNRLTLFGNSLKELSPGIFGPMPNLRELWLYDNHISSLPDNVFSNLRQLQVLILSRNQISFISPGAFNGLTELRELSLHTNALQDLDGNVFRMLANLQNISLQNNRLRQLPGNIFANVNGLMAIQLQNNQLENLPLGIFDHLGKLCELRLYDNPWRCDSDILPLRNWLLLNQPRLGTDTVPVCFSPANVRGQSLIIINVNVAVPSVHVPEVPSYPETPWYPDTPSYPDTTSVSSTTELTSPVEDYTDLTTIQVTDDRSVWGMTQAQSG
Description: BLI; dissociation pH 7.4 black, pH 5.4 grey [D00028 FIG. 7B]. On the technique in general: In BLI a coated tip is dipped into the sample, and binding shifts an interference pattern.

For assay [2], the target named is T2, Human LRRC15 Protein, His Tag (Acro Biosystems) (human, UniProt Q8TF66 22-538, limits assumed).
T2 construct: not shown: His tag
T2 sequence (looked up): T1 sequence (looked up)
Description: BLI; dissociation pH 7.4 black, pH 5.4 grey [1/2); D00019 FIG. 4B (1/2]. As for the experimental part: Desirable mutations were transferred to a humanized framework (humanized, MYT 8387-8411). After allowing for four days of protein expression, cell culture supernatants were collected, quantified by SDS-PAGE analysis, and the pH dependence of the variant was evaluated using biolayer interferometry (BLI) on an Octet RED 96e instrument. Briefly, cell culture supernatants were diluted based on qualitative expression level of the variant determined by visual examination of SDS-PAGE gels, 5 μL of cell culture supernatant was diluted into 195 μL of 1×PBST, pH 7.4 for high expressors, 25 μL of cell culture supernatant was diluted into 175 μL of 1×PBST, pH 7.4 for medium expressors and 100 μL of cell culture supernatant was diluted into 100 μL of 1×PBST, pH 7.4 for low expressors for loading onto the sensor tips. The resulting diluted supernatants were then captured on an anti-human Fc sensor (Forte Bio). A baseline was established using 1×PBST (50 mM Potassium Phosphate Buffer+150 mM NaCl+0.05% Tween 20) pH 7.4, and the […] was associated with 50 nM of LRRC15 (Human LRRC15 Protein, His Tag, Acro Biosystems) in 1×PBST pH 7.4 for 120 sec to generate an association curve. In the dissociation phase, the antibody-antigen complex on the sensor was exposed to 1×PBST pH 7.4 or pH 5.4, for 300 sec. Association and dissociation phase curves were examined for the starting ABPC antibody (with no substitutions) and each corresponding antibody variant at pH 5.4 and pH 7.4 to inform on two criteria: a) enhanced dissociation (i.e., higher koff values) at pH 5.4 due to histidine substitution compared to the starting ABPC, (with no substitutions), and b) reduced dissociation at pH 7.4 (i.e., lower koff values) compared to pH 5.4 in the antibody variant itself and with the starting ABPC (with no substitutions).
The methods of Examples 9-10 were applied to RabMAb clone 29F1 (rabbit VH SEQ ID NO: 572 and VL SEQ ID NO: 578; and humanized VH SEQ ID NO: 576 and VL SEQ ID NO: 582).

Changes are numbered by the printed parent chain. Names and notes keep the numbering of the source.

B1: MYT9727 (antibody, V domains shown)
VH: EVQLVESGGGLVQPGGSLRLSCTASGFSFSSSHWICWVRQAPGKGLEWVGCIYAGSIGSTYYASWAKGRFTISRDTSKNTVYLQMNSLRAEDTAVYYCARAPNDIYNYYFNLWGQGTLVTVSS
VL: EIVMTQSPSTLSASVGDRVIITCEASENIYNYLAWYQQKPGKAPKLLIYYASTLASGVPSRFSGSGSGAEFTLTISSLQPDDFATYYCQSGYVSKSSTFGQGTKLTVL
notes: Humanized 29F1 with VL Q24E; captured by anti-human Fc sensor
For the molecule B1, the binding result in assay [1] is “binds”.

B2: MYT9740 (antibody, V domains shown)
VH: B1 VH
VL: B1 VL with E24Q, S52E
notes: Humanized 29F1 with VL S52E; captured by anti-human Fc sensor
Consider B2, for which the binding result in assay [1] is “binds”.

B3: MYT9734 (antibody, V domains shown)
VH: B1 VH
VL: B1 VL with E24Q, N31E
notes: also called hu29F1 VL N31E
As for B3, the binding result in assay [1] is on record as “binds”.

B4: MYT9739 (antibody, V domains shown)
VH: B1 VH
VL: B1 VL with E24Q, A51E
notes: Humanized 29F1 with VL A51E; captured by anti-human Fc sensor
In the case of B4, in assay [1], the binding result is given as “binds”.

B5: MYT9738 (antibody, V domains shown)
VH: B1 VH
VL: B1 VL with E24Q, Y50E
notes: Humanized 29F1 with VL Y50E; captured by anti-human Fc sensor
On to B5, for which the binding result in assay [1] was “binds”.

B6: MYT9489 (antibody, V domains shown)
VH: B1 VH with W65D
VL: B1 VL with E24Q
notes: also called hu29F1 VH W65D
Consider B6, for which the binding result in assay [2] is recorded as “binds”.

B7: MYT9728 (antibody, V domains shown)
VH: B1 VH
VL: B1 VL with E24Q, A25E
notes: also called hu29F1 VL A25E
For the molecule B7, in assay [1], the binding result is recorded as “binds”.

B8: MYT9485 (antibody, V domains shown)
VH: B1 VH with Y61D
VL: B1 VL with E24Q
notes: also called hu29F1 VH Y61D
Turning to B8, the binding result in assay [2] is “binds”.

B9: MYT9465 (antibody, V domains shown)
VH: B1 VH with F27D
VL: B1 VL with E24Q
notes: also called hu29F1 VH F27D
For B9, in assay [2], the binding result was “binds”.

B10: MYT9490 (antibody, V domains shown)
VH: B1 VH with A66D
VL: B1 VL with E24Q
notes: also called hu29F1 VH A66D
B10: the binding result in assay [2] is reported as “binds”.

B11: MYT9741 (antibody, V domains shown)
VH: B1 VH
VL: B1 VL with E24Q, T53E
notes: Humanized 29F1 with VL T53E; captured by anti-human Fc sensor
B11: the binding result in assay [1] is “binds”.

B12: MYT9481 (antibody, V domains shown)
VH: B1 VH with I57D
VL: B1 VL with E24Q
notes: also called hu29F1 VH I57D
Consider B12, for which the binding result in assay [2] is reported as “binds”.

B13: MYT9753 (antibody, V domains shown)
VH: B1 VH
VL: B1 VL with E24Q, S97E
notes: also called hu29F1 VL S97E
Turning to B13, in assay [1], the binding result is “binds”.

B14: MYT9476 (antibody, V domains shown)
VH: B1 VH with I52D
VL: B1 VL with E24Q
notes: also called hu29F1 VH I52D
Regarding B14, the binding result in assay [2] was “binds”.

B15: MYT9730 (antibody, V domains shown)
VH: B1 VH
VL: B1 VL with E24Q, E27A
notes: Humanized 29F1 with VL E27A; captured by anti-human Fc sensor
As to B15, in assay [1], the binding result was “binds”.

B16: MYT9486 (antibody, V domains shown)
VH: B1 VH with Y62D
VL: B1 VL with E24Q
notes: also called hu29F1 VH Y62D
Take B16: the binding result in assay [2] is recorded as “binds”.

B17: MYT9745 (antibody, V domains shown)
VH: B1 VH
VL: B1 VL with E24Q, Q89E
notes: also called hu29F1 VL Q89E
Regarding B17, the binding result in assay [1] is “binds”.

B18: MYT9469 (antibody, V domains shown)
VH: B1 VH with S31D
VL: B1 VL with E24Q
notes: Humanized 29F1 VH aspartate variant; also called hu29F1 VH S31D
Turning to B18, the binding result in assay [2] is “binds”.

B19: MYT9494 (antibody, V domains shown)
VH: B1 VH with R100D
VL: B1 VL with E24Q
notes: also called hu29F1 VH R100D
Regarding B19, the binding result in assay [2] was “binds”.

B20: MYT9493 (antibody, V domains shown)
VH: B1 VH with A99D
VL: B1 VL with E24Q
notes: Humanized 29F1 VH aspartate variant; also called hu29F1 VH A99D
With B20, in assay [2], the binding result is “binds”.

B21: MYT9484 (antibody, V domains shown)
VH: B1 VH with T60D
VL: B1 VL with E24Q
notes: also called hu29F1 VH T60D
Consider B21, for which the binding result in assay [2] is “binds”.

B22: MYT9491 (antibody, V domains shown)
VH: B1 VH with K67D
VL: B1 VL with E24Q
notes: also called hu29F1 VH K67D
On to B22, for which the binding result in assay [2] is given as “binds”.

B23: MYT9487 (antibody, V domains shown)
VH: B1 VH with A63D
VL: B1 VL with E24Q
notes: also called hu29F1 VH A63D
For B23, in assay [2], the binding result is on record as “binds”.

B24: MYT9468 (antibody, V domains shown)
VH: B1 VH with S30D
VL: B1 VL with E24Q
notes: also called hu29F1 VH S30D
As for B24, the binding result in assay [2] is listed as “binds”.

B25: MYT9488 (antibody, V domains shown)
VH: B1 VH with S64D
VL: B1 VL with E24Q
notes: also called hu29F1 VH S64D
Take B25: in assay [2], the binding result is “binds”.

B26: MYT9470 (antibody, V domains shown)
VH: B1 VH with S32D
VL: B1 VL with E24Q
notes: also called hu29F1 VH S32D
For the molecule B26, the binding result in assay [2] is “binds”.

B27: MYT9732 (antibody, V domains shown)
VH: B1 VH
VL: B1 VL with E24Q, I29E
notes: also called hu29F1 VL I29E
As to B27, the binding result in assay [1] is given as “binds”.

B28: MYT9744 (antibody, V domains shown)
VH: B1 VH
VL: B1 VL with E24Q, S56E
notes: Humanized 29F1 with VL S56E; captured by anti-human Fc sensor
In the case of B28, the binding result in assay [1] is recorded as “binds”.

B29: MYT9480 (antibody, V domains shown)
VH: B1 VH with S56D
VL: B1 VL with E24Q
notes: Humanized 29F1 VH aspartate variant; also called hu29F1 VH S56D
Take B29: the binding result in assay [2] was “binds”.

B30: MYT9752 (antibody, V domains shown)
VH: B1 VH
VL: B1 VL with E24Q, S96E
notes: also called hu29F1 VL S96E
Turning to B30, the binding result in assay [1] is on record as “binds”.

B31: MYT9466 (antibody, V domains shown)
VH: B1 VH with S28D
VL: B1 VL with E24Q
notes: also called hu29F1 VH S28D
Regarding B31, the binding result in assay [2] is on record as “binds”.

B32: MYT9729 (antibody, V domains shown)
VH: B1 VH
VL: B1 VL with E24Q, S26E
notes: also called hu29F1 VL S26E
For the molecule B32, the binding result in assay [1] was “binds”.

B33: MYT9736 (antibody, V domains shown)
VH: B1 VH
VL: B1 VL with E24Q, L33E
notes: also called hu29F1 VL L33E
In the case of B33, in assay [1], the binding result is “binds”.
